The text below walks through data of US9732101B2, “Bioreversible boronates for delivery of molecules into cells” (WISCONSIN ALUMNI RESEARCH FOUNDATION, priority 2012, dated 2017).

Where two headings read alike, the source gives them in different places.

One assay deals with Pro-5 cells. Put plainly: Cellular internalization by flow cytometry. It counts as cell-based, Chinese hamster. The protocol:
Cell lines were obtained from American Type Culture Collection (Manassas, Va.) and were maintained according to the recommended procedures. Cells were grown in a cell culture incubator at 37° C. under CO2 (5% v/v) in flat-bottomed culture flasks. Cell medium was supplemented with GIBCO fetal bovine serum (FBS) (10% v/v), penicillin (100 units/mL), and streptomycin (100 μg/mL) in the appropriate cellular medium as follows: Pro-5, MEM α+ribonucleosides+deoxyribonucleosides; Lec-2, MEM α-ribonucleosides-deoxyribonucleosides; and K562, RPMI 1640. Cells were counted by hemocytometry for dispensing into 12-well plates (Corning Costar, Lowell, Mass.) or 8-well chambered coverglass slides (Nuc Lab-Tek II, Thermo Scientific).
BODIPY-FL was excited with a 488 nm solid-state laser and the emission was collected with a 530/30 bandpass filter. To collect the most reproducible data, for every flow cytometry experiment, the sensitivity (voltage) of the photomultiplier tube was set for all data collections using mid-range Rainbow beads from Spherotech (Lake Forest, Ill.) to a predetermined fluorescence target value. At least 10,000 cellular events were acquired for each sample. Data were analyzed using FlowJo 8.1.3 (Treestar, Ashland, Oreg.).
The day prior to an experiment, Pro-5 and Lec-2 cells were plated in 12-well plates at 1×10^5 cells/well. The day of the experiment, the appropriate amount of fructose was dissolved into the cellular medium to obtain a final fructose concentration of 250 mM, and the medium was passed through a 0.45-μm syringe filter from Whatman (Piscataway, N.J.). Non-fructose-containing medium was filtered likewise. Stock solutions of fluorescently labeled ribonucleases were diluted into the cell culture to a final concentration of 5 μM. Ribonucleases were incubated with cells for 4 h. Cells were then rinsed with PBS (2×400 μL), removed from the cell culture plate with trypsin (400 μL, 0.05% (1×) with EDTA; Invitrogen, Carlsbad, Calif.), placed in flow cytometry tubes containing 80 μL of FBS, and incubated on ice until analyzed by flow cytometry. Final fluorescence values were divided by the percent fluorophore labeling of the ribonuclease to determine the corrected value of fluorescence. Experiments were run twice in triplicate unless otherwise indicated. Data is illustrated in FIG. 4A and FIG. 4C.

The subject of the next assay is K-562 cells. The assay can be described thus: Cell-proliferation assay, [methyl-3H]thymidine incorporation. Type of assay: cell-based, human. The protocol:
The effect of unmodified and boronated RNase A on the proliferation of K-562 cells was assayed as described in For assays, 5 μL of a solution of the ribonuclease or PBS (control) was added to 95 μL of cells (5.0×10^4 cells/mL). For co-treatment assays with fructose, ribonucleases were first serially diluted at 2× concentration, followed by addition of an equal volume of 2 M fructose in PBS to each ribonuclease dilution, resulting in a 1× ribonuclease dilution as before but now containing 1 M fructose. Then, 5 μL of each dilution was added to cells as above, including a control of PBS containing 1 M fructose. Because 5 μL of samples were added to 95 μL of cells, the final concentration of fructose in each well was 50 mM.
After a 44-h incubation, K-562 cells were treated with [methyl-^3H]thymidine for 4 h, and the incorporation of radioactive thymidine into cellular DNA was quantitated by liquid scintillation counting. The results are shown as the percentage of [methyl-^3H]thymidine incorporated relative to control cells treated with PBS in FIG. 5. […] Values for IC50 were calculated by fitting the curves by nonlinear regression to the equation: y=100%/(1+10^(log(IC^50^)-log [ribonuclease])h), in which y is the total DNA synthesis following the [methyl-^3H]thymidine pulse and h is the slope of the curve.

A short description of assay [1]: Fluorescence polarization assay of binding to GD3 ganglioside-labeled liposomes. As to conditions: for affinity for GD3 ganglioside relative to binding of a single benzoboroxole to Neu5Ac: compared with Ka of Table 1. The arrangement: species or system bovine. Here is the method:
Liposomes were formed by transferring DOPC (dissolved in chloroform solution) and GD3 gangliosides (dissolved in 63:35:5 chloroform/methanol/water) to glass tubes and drying them under Ar (g) and then under vacuum. Lipids were re-suspended in 25 mM HEPES buffer, pH 7.0, containing NaCl (75 mM). The solution of lipids was mixed by vortexing for 2 min, and incubated at 37° C. for 1 h. For DOPC liposomes, DOPC was resuspended at a concentration of 5 mM. For GD3 ganglioside-labeled liposomes, DOPC and GD3 gangliosides were mixed at 3 mM and 2 mM concentrations, respectively. Large unilammelar vesicles were formed by extrusion through a 0.1-μm polycarbonate filter from Whatman (GE Healthcare, Piscataway, N.J.). This process produces a population of vesicles of near uniform size (˜100-150 nm diameter as measured by dynamic light scattering). A portion of the DOPC lipids before extrusion were aliquoted as a control.
Fluorescence polarization assays were performed using 50 nM BODIPY FL-labeled unmodified and benzoboroxole-boronated RNase A in black NBS 96-well plates (Corning Costar, Lowell, Mass.). These ribonucleases were incubated with DOPC liposomes (625 μM total lipid) or GD3 ganglioside-labeled liposomes (375 μM DOPC, 250 μM GD3 ganglioside=625 μM total lipid) in 25 mM HEPES buffer, pH 7.0, containing NaCl (75 mM) in the absence or presence of fructose (10 mM). In control wells, ribonucleases were incubated with non-extruded DOPC lipids. Fluorescence polarization at 470/535 nm with a G-factor of 1.257 was recorded after shaking the plate briefly and incubating at ambient temperature for 1 h. Control well polarization was subtracted from experimental well polarization for each ribonuclease. The assay was performed in triplicate.
The affinity of benzoboroxole-boronated RNase A for GD3 ganglioside-labeled liposomes was assessed by using serially diluted liposomes. GD3 ganglioside-labeled liposomes were serially diluted in 25 mM HEPES, pH 7.0, containing 75 mM with dilutions of 62.5 nM-1250 μM total lipid. […] Control DOPC liposomes (with no GD3 ganglioside) were likewise diluted in the same buffer, producing solutions of 62.5 nM-1250 μM total lipid. Liposomes were then incubated with 50 nM BODIPY FL-labeled benzoboroxole-boronated RNase A in the same buffer in a black NBS 96-well plate. Fluorescence polarization was recorded after shaking the plate briefly and incubating at ambient temperature for 35 min. Fluorescence polarization from GD3 ganglioside-labeled liposomes was subtracted from that from DOPC-only liposomes, thereby correcting for binding to DOPC and for changes in solution viscosity. The assay was performed in duplicate. The fraction of labeled ribonuclease bound for each sample well was calculated by dividing its polarization from the polarization of ribonucleases incubated with the highest concentration of GD3 ganglioside (set at 100% bound). The value of Kd was calculated by plotting the fraction bound against the concentration of GD3 ganglioside (see FIG. 21) and fitting the data to a binding isotherm as described in ref. [46] to give Kd=(54±11) μM.

B1: benzoboroxole-boronated RNase A: RNase A with 5-amino-2-hydroxymethylphenylboronic acid conjugated to protein carboxyl groups by carbodiimide condensation (conjugate, UniProt P61823 27-150, looked up)
Ribonuclease pancreatic: KETAAAKFERQHMDSSTSAASSSNYCNQMMKSRNLTKDRCKPVNTFVHESLADVQAVCSQKNVACKNGQTNCYQSYSTMSITDCRETGSSKYPNCAYKTTQANKHIIVACEGNPYVPVHFDASV
modifications: benzoboroxole conjugated to carboxyl groups
notes: RNase A with 5-amino-2-hydroxymethylphenylboronic acid conjugated to protein carboxyl groups by carbodiimide condensation
For B1, the “increase in cellular uptake” value with Pro-5 cells (5 μM, 4 h, relative to unmodified RNase A) is listed as 4- to 5 fold. The “effect of fructose on enhancement of cellular uptake” value with Pro-5 cells (fructose 0.25 M) is recorded as “eliminated”. In addition, the IC50 in the assay with K-562 cells ([methyl-3H]thymidine incorporation, 44-h incubation, read-out: IC50, inhibition of K-562 cell proliferation) is 4 ± 0.3 µM; in the assay with K-562 cells (fructose 50 mM, read-out: IC50, inhibition of K-562 cell proliferation in the presence of fructose), 9 ± 1 µM. For the same molecule, in assay [1] (BODIPY FL-labeled protein 50 nM, 25 mM HEPES buffer, pH 7.0, NaCl 75 mM), the Kd turned out to be 54 ± 11 µM. Besides, the results for the “affinity for GD3 ganglioside relative to binding of a single benzoboroxole to Neu5Ac” value in assay [1] (listed as benzoboroxole-boronated protein) and in assay [1] (listed as boronated protein) were about 430 fold and about 440 fold, respectively. Moreover, the “effect of boronation on affinity for the ganglioside” value in assay [1] (fluorescence polarization, absence of fructose, versus unmodified RNase A) was “increased the affinity”. Besides, the “effect of fructose on the increased affinity for the ganglioside” value in assay [1] (fluorescence polarization, fructose 10 mM) is on record as “abrogated”.
